B1: TRIM55 (parent)
chain: YKSFSKEQQTMDNLEKQLICPICL
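Further: lentivirally expressed fusions sorted by FACS into six bins by GFP to DsRed ratio, PSI derived from sequencing read proportions per bin multiplied by bin number.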

Variants of: B1
Experiment: protein stability index of a GFP-peptide fusion (GPS, HEK-293T) (PSI 1-6); higher = more stable
Conditions: c terminus: a fixed tail appended
Work on YGSFSKEQQTMDNLEKQLICPICL [K2G] yielded a protein stability index of 2.92. With YPSFSKEQQTMDNLEKQLICPICL [K2P] the protein stability index was 2.5. Work on YVSFSKEQQTMDNLEKQLICPICL [K2V] yielded a protein stability index of 2.05. YYSFSKEQQTMDNLEKQLICPICL [K2Y] gave a protein stability index of 1.95. Work on YLSFSKEQQTMDNLEKQLICPICL [K2L] yielded a protein stability index of 2.52. With YSSFSKEQQTMDNLEKQLICPICL [K2S] the protein stability index was 2.38. In the case of YKSFSKHQQTMDNLEKQLICPICL [E7H], the protein stability index is reported as 2.36. For YKSFSKKQQTMDNLEKQLICPICL [E7K], the protein stability index was 2.25. Work on YKSFSKFQQTMDNLEKQLICPICL [E7F] yielded a protein stability index of 1.87. Variant YKSFSKLQQTMDNLEKQLICPICL [E7L] has a protein stability index of 1.35. In the case of YKSFSKEQQTMDDLEKQLICPICL [N13D], the protein stability index is reported as 2.77. YKSFSKEQQTMDVLEKQLICPICL [N13V] gave a protein stability index of 1.68. YKSFSKEQQTMDWLEKQLICPICL [N13W] gave a protein stability index of 2.05. In the case of YKSFSKEQQTMDELEKQLICPICL [N13E], the protein stability index is reported as 1.87. Variant YKSFSKEQQTMDLLEKQLICPICL [N13L] has a protein stability index of 2.82. With YKSFSKEQQTMDHLEKQLICPICL [N13H] the protein stability index was 1.95. For YKSFSKEQQTMDILEKQLICPICL [N13I], the protein stability index was 1.77. For YKSFSKEQQTMDMLEKQLICPICL [N13M], the protein stability index was 1.69. With YKSFSKEQQTMDYLEKQLICPICL [N13Y] the protein stability index was 1.83. YKSFSKEQQTMDCLEKQLICPICL [N13C] showed a protein stability index of 2.02. For YKSFSKEQQTMDQLEKQLICPICL [N13Q], the protein stability index was 2.53. In the case of YKSFSKEQQTMDPLEKQLICPICL [N13P], the protein stability index is reported as 2.03. YKSFSKEQQTMDNLEKQLIAPICL [C20A] gave a protein stability index of 1.54. YKSFSKEQQTMDNLEKQLINPICL [C20N] showed a protein stability index of 2.42. Work on YKSFSKEQQTMDNLEKQLIFPICL [C20F] yielded a protein stability index of 2.22. With YKSFSKEQQTMDNLEKQLISPICL [C20S] the protein stability index was 2.4. With YKSFSKEQQTMDNLEKQLIMPICL [C20M] the protein stability index was 1.82. Variant YKSFSKEQQTMDNLEKQLIVPICL [C20V] has a protein stability index of 1.78. In the case of YKSFSKEQQTMDNLEKQLIHPICL [C20H], the protein stability index is reported as 2.27. For YKSFSKEQQTMDNLEKQLIDPICL [C20D], the protein stability index was 2.51. YKSFSKEQQTMDNLEKQLIWPICL [C20W] gave a protein stability index of 1.85. With YKSFSKEQQTMDNLEKQLIEPICL [C20E] the protein stability index was 3.21. Work on YKSFSKEQQTMDNLEKQLITPICL [C20T] yielded a protein stability index of 2.44. For YKSISKEQQTMDNLEKQLICPICL [F4I], the protein stability index was 2.23. In the case of YKSCSKEQQTMDNLEKQLICPICL [F4C], the protein stability index is reported as 2.59. In the case of YKSKSKEQQTMDNLEKQLICPICL [F4K], the protein stability index is reported as 2.63. In the case of YKSTSKEQQTMDNLEKQLICPICL [F4T], the protein stability index is reported as 2.44. YKSPSKEQQTMDNLEKQLICPICL [F4P] showed a protein stability index of 2.9. For YKSMSKEQQTMDNLEKQLICPICL [F4M], the protein stability index was 2. With PKSFSKEQQTMDNLEKQLICPICL [Y1P] the protein stability index was 2.7. AKSFSKEQQTMDNLEKQLICPICL [Y1A] gave a protein stability index of 2.5. In the case of DKSFSKEQQTMDNLEKQLICPICL [Y1D], the protein stability index is reported as 3.46. RKSFSKEQQTMDNLEKQLICPICL [Y1R] gave a protein stability index of 2.83. With IKSFSKEQQTMDNLEKQLICPICL [Y1I] the protein stability index was 1.99. For FKSFSKEQQTMDNLEKQLICPICL [Y1F], the protein stability index was 2.02. In the case of CKSFSKEQQTMDNLEKQLICPICL [Y1C], the protein stability index is reported as 2.7. Variant YKSFSKEQQTMDNIEKQLICPICL [L14I] has a protein stability index of 2.06. Work on YKSFSKEQQTMDNGEKQLICPICL [L14G] yielded a protein stability index of 2.6. YKSFSKEQQTMDNNEKQLICPICL [L14N] showed a protein stability index of 2.73. Work on YKSFSKEQQTMDNYEKQLICPICL [L14Y] yielded a protein stability index of 1.98. Variant YKSFSKEQQTMDNQEKQLICPICL [L14Q] has a protein stability index of 3.27. YKSFSKEIQTMDNLEKQLICPICL [Q8I] gave a protein stability index of 2.1. Work on YKSFSKENQTMDNLEKQLICPICL [Q8N] yielded a protein stability index of 2.18. Variant YKSFSKERQTMDNLEKQLICPICL [Q8R] has a protein stability index of 1.72. For YKSFSKEEQTMDNLEKQLICPICL [Q8E], the protein stability index was 2.3. YKSFSKEKQTMDNLEKQLICPICL [Q8K] gave a protein stability index of 1.8. Variant YKSFSKEQQTMTNLEKQLICPICL [D12T] has a protein stability index of 2.42. YKSFSKEQQTMWNLEKQLICPICL [D12W] gave a protein stability index of 2.11. In the case of YKSFSKEQQTMPNLEKQLICPICL [D12P], the protein stability index is reported as 2.43. In the case of YKSFSKEQQTMKNLEKQLICPICL [D12K], the protein stability index is reported as 2.98. In the case of YKSFSKEQQTMANLEKQLICPICL [D12A], the protein stability index is reported as 2.04. Variant YKSFSKEQQTMLNLEKQLICPICL [D12L] has a protein stability index of 2.14. YKSFSKEQQTMENLEKQLICPICL [D12E] gave a protein stability index of 2.59. For YKSFSKEQQTMDNLEKQSICPICL [L18S], the protein stability index was 2.49. YKSFSKEQQTMDNLEKQRICPICL [L18R] showed a protein stability index of 3.17. YKSFSKEQQTMDNLEKQPICPICL [L18P] gave a protein stability index of 2.87. With YKSFSKEQQTMDNLEKQWICPICL [L18W] the protein stability index was 1.95. For YKSFSKEQQTMDNLEKQDICPICL [L18D], the protein stability index was 2.98. YKSFSKEQQTMDNLEKQFICPICL [L18F] showed a protein stability index of 2.55. YKSFSKEQQTMDNLEKQCICPICL [L18C] showed a protein stability index of 3.72. Work on YKSFSKEQQTMDNLEKQLICPDCL [I22D] yielded a protein stability index of 2.78. YKSFSKEQQTMDNLEKQLICPFCL [I22F] showed a protein stability index of 2.21. Variant YKSFSKEQQTMDNLEKQLICPCCL [I22C] has a protein stability index of 2.66. YKSFSKEQQTMDNLEKQLICPPCL [I22P] showed a protein stability index of 2.7. In the case of YKSFSKEQQTMDNLEKQLICPTCL [I22T], the protein stability index is reported as 2.55. In the case of YKSFSKEQQTMDNLEKQLICPVCL [I22V], the protein stability index is reported as 1.96. In the case of YKSFSKEQQTMDNLEKQLICPGCL [I22G], the protein stability index is reported as 2.9. Variant YKSFSKEQQTMDNLEKQLICPLCL [I22L] has a protein stability index of 2.18. In the case of YKSFSKEQQTMDNLEKQLICPRCL [I22R], the protein stability index is reported as 3.81. YKSFIKEQQTMDNLEKQLICPICL [S5I] showed a protein stability index of 1.96. Work on YKSFFKEQQTMDNLEKQLICPICL [S5F] yielded a protein stability index of 1.71. YKSFCKEQQTMDNLEKQLICPICL [S5C] gave a protein stability index of 2.73. In the case of YKSFKKEQQTMDNLEKQLICPICL [S5K], the protein stability index is reported as 2.48. Variant YKSFYKEQQTMDNLEKQLICPICL [S5Y] has a protein stability index of 2.26. Work on YKSFSKEQQTMDNLEKQLSCPICL [I19S] yielded a protein stability index of 2.37. Work on YKSFSKEQQTMDNLEKQLWCPICL [I19W] yielded a protein stability index of 1.51. Work on YKSFSKEQQTMDNLEKQLDCPICL [I19D] yielded a protein stability index of 2.56. In the case of YKSFSKEQQTMDNLEKQLLCPICL [I19L], the protein stability index is reported as 1.96. In the case of YKSFSKEQQTMDNLEKQLGCPICL [I19G], the protein stability index is reported as 2.8. Variant YKSFSKEQQTMDNLEKQLVCPICL [I19V] has a protein stability index of 2.06. Variant YKSFSKEQQTMDNLEKQLTCPICL [I19T] has a protein stability index of 2.76. In the case of YKSFSKEQQTMDNLEKQLRCPICL [I19R], the protein stability index is reported as 2.63. YKSFSKEQQTMDNLEKQLHCPICL [I19H] gave a protein stability index of 2.25. YKSFSKEQQTMDNLEKQLYCPICL [I19Y] gave a protein stability index of 2.02.
